Assay results: paper PMC3688683, “The N-Terminal Domains of Vps3 and Vps8 Are Critical for Localization and Function of the CORVET Tethering Complex on Endosomes” (PLoS ONE, 2013)

Target: T1, Vps3-TAP (full-length Vps3, C-terminal TAP tag) (yeast (genomic locus of BY4741/BY4733 …, UniProt P23643 1-1011))
T1 construct: Vps3, CORVET-specific subunit, yeast, full-length; also called Vps3-Cbp; source: yeast, genomically TAP-tagged, in lysate; overexpressed and TAP-purified from yeast for the GST-Rab pull-down; not shown: TAP, C-terminal, kept
T1 sequence (looked up): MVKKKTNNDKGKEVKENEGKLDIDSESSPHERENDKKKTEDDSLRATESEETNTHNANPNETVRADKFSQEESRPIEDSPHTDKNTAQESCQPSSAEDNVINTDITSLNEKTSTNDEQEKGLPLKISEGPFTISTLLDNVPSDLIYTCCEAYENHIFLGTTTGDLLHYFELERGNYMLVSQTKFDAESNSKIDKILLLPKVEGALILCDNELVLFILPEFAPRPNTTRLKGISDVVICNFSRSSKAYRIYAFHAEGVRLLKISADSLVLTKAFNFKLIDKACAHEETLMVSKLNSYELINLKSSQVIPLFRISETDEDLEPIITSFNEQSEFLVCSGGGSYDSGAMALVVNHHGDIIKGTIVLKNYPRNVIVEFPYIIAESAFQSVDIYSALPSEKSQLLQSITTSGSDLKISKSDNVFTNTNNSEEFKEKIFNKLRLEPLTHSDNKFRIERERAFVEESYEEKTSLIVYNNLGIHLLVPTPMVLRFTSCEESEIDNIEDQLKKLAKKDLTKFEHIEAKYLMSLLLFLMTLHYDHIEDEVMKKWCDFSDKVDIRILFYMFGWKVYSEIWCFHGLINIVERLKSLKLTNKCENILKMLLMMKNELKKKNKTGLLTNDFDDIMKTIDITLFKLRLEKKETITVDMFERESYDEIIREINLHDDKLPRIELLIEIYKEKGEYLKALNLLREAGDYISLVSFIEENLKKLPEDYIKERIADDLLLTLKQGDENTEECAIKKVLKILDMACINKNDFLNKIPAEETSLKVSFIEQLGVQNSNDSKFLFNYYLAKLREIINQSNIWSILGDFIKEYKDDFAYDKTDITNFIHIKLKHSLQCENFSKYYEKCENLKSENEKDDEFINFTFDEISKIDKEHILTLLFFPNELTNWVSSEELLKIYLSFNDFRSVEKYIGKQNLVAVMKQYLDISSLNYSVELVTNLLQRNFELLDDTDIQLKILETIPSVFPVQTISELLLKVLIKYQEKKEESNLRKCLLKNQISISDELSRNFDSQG
Assay: pull-down; 150 µg GST-Vps21 loaded with GTPγS (or GDP) on GSH-Sepharose; 35 µg yeast-purified Vps3-Cbp construct, 1 h at 4°C; 20 mM HEPES/NaOH pH 7.4, 150 mM NaCl, 2 mM MgCl2, 0.1% NP-40, 7 mg/ml BSA; eluted with 20 mM EDTA; blot against Cbp
Conditions: both partners purified

binding result: binds
B1: GST-Vps21 (natural protein, yeast, UniProt P36017 1-210, looked up)
chain: MNTSVTSIKLVLLGEAAVGKSSIVLRFVSNDFAENKEPTIGAAFLTQRVTINEHTVKFEIWDTAGQERFASLAPMYYRNAQAALVVYDVTKPQSFIKARHWVKELHEQASKDIIIALVGNKIDMLQEGGERKVAREEGEKLAEEKGLLFFETSAKTGENVNDVFLGIGEKIPLKTAEEQNSASNERESNNQRVDLNAANDGTSANSACSC
notes: Vps21, endosomal Rab5-like GTPase of yeast; loaded with GTPγS or GDP before the pull-down; Held on GSH-Sepharose; nucleotide state set by loading with 1 mM GTPγS or GDP; also called Vps21-GTP; immobilized Vps21; source: recombinant
